Data as given in the supplement of paper PMC6757056.
± gives the standard deviation of the averaged measurements.

B1: library; a variant is named by its letters at N, in order (parent)
chain: GCUGUCACCGAGAAACUGUGAAGUAUAUCUUAAACCUGGGCACUUAAAAGAUAUAUGGAGUUAGUAGUGCAACCUGCUCGGUCUGAUGAGUCCNNNNNNGGACGAAACAGC

What was measured:
[1] = variants of: B1; experiment: normalized RNA/DNA level without ligand (relative to sTRSVctl = 100) (log10 (% of sTRSVctl)); HEK293T; ligand: cyclic di-GMP (c-di-GMP-II aptamer); higher = less ribozyme self-cleavage, higher mRNA level; conditions: reporter: mCherry (pCS4076), ligand present: no
Outline: (§1)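 RNA level was computed as RNA reads over DNA reads divided by a spiked-in non-cleaving sequence or by the top sequences, then scaled and log-transformed. Scaling was ×100 with log10, the top group was 25 sequences, and the threshold was ≥100 DNA reads. The reads came from HEK293T cells transfected at 4 µg per 6-well well with ribozyme switch library plasmids (mCherry, or eGFP in some ligand experiments). Total RNA was extracted with EDTA 72 h after transfection, with any ligand added 1 h before it.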

[2] = variants of: B1; experiment: normalized RNA/DNA level with ligand (relative to sTRSVctl = 100) (log10 (% of sTRSVctl)); HEK293T; ligand: cyclic di-GMP (c-di-GMP-II aptamer); ligand concentration (+) RNA-Seq: 1 mM; higher = less ribozyme self-cleavage, higher mRNA level; conditions: reporter: mCherry (pCS4076), ligand present: yes
Outline: as §1

Variant | normalized RNA/DNA level without ligand (log10) [1] | normalized RNA/DNA level with ligand (log10) [2]
CCUUGA | 1.63 ± 0.029 | 1.83 ± 0.095
CCUUGU | 1.75 ± 0.058 | 1.86 ± 0.1
AGAUAG | 1.53 ± 0.11 | 1.71 ± 0.086
AGAUAC | 1.64 ± 0.029 | 1.79 ± 0.12
AGAUAU | 1.61 ± 0.046 | 1.78 ± 0.14
CGAUAC | 1.61 ± 0.033 | 1.77 ± 0.084
CGAUAG | 1.7 ± 0.056 | 1.87 ± 0.12
AGAGCA | 1.806 ± 0.017 | 1.87 ± 0.098
AGAGCG | 1.81 ± 0.05 | 1.84 ± 0.17
AGAGCC | 1.78 ± 0.041 | 1.88 ± 0.12
AGAGCU | 1.713 ± 0.012 | 1.84 ± 0.043
CGAAAU | 1.42 ± 0.055 | 1.63 ± 0.12
CGAAAG | 1.78 ± 0.056 | 1.88 ± 0.046
UGAUAA | 1.633 ± 0.011 | 1.8 ± 0.089
GGAGAC | 1.72 ± 0.035 | 1.85 ± 0.059
CGAGUU | 1.72 ± 0.08 | 1.84 ± 0.094
CGAGUA | 1.7354 ± 0.0011 | 1.79 ± 0.11
CGAGUC | 1.76 ± 0.065 | 1.88 ± 0.12
CGAGUG | 1.7 ± 0.049 | 1.83 ± 0.15
CGAGAG | 1.72 ± 0.022 | 1.84 ± 0.033
CGAGAC | 1.643 ± 0.0051 | 1.77 ± 0.16
UGACUU | 1.68 ± 0.043 | 1.85 ± 0.13
UGACUA | 1.665 ± 0.0041 | 1.78 ± 0.084
UGACUG | 1.7 ± 0.033 | 1.84 ± 0.11
GGACUC | 1.757 ± 0.0094 | 1.92 ± 0.082
GCUUGU | 1.577 ± 0.005 | 1.75 ± 0.15
GCUUGC | 1.77 ± 0.057 | 1.87 ± 0.17
GCUUGG | 1.59 ± 0.023 | 1.8 ± 0.072
GCUUGA | 1.54 ± 0.08 | 1.76 ± 0.12
